Patent US20090117043A1 (Human Genome Sciences, published 2009)
Where no end group is shown, it is not given here.

T1: mature form of the neurokinin B polypeptide (amino acids 81 to 90 of SEQ ID NO:2) (human, ends and bridges not checked)
T1 construct: also called NKB; neurokinin 3 (NK3)
T1 peptide: DMHDFFVGLM

B1: NO24F09 (scFv)
scFv: QVQLQQSGAEVKKPGASVKVSCKASGYTFTGYYMHWVRQAPGQRLEWMGGILPFFGTTSYAQNFHGRLTITADESTRTAYMELSSLKSEDTAVYYCARDESADPKNAFDIWGRGTMVTVSSGGGGSGGGGSGGGGSQSVLTQPPPVSAAPGQKVTISCSGSTSNIGNNYVSWYQQRPGKAPKLMIYDVSKRPSGVPDRFSGSKSGNSASLDISGLQSEDEADYYCAAWDDSLSEFLFGTGTKLTVLG
B2: NO24D01 (scFv)
scFv: QVQLQQSGGGVVQPGRSLRLSCAASGFTFDDYAMHWVRQAPGKGLEWVSGISWNSGSIGYADSVKGRFTISRDNAKNSLYLQMNSLRAEDTALYYCAKTGGGNSLDYWGRGTLVTVSSGGGGSGGGGSGGGGSQSVLTQPPSVSAAPGQKVTISCSGSTSNIGNNYVSWYQQHPGKAPKLMIYDVSKRPSGVPDRFSGSKSGNSASLDISGLQSEDEADYYCAAWDDSLSEFLFGTGTKLTVLG
B3: NO15F10 (scFv)
scFv: QVQLQQSGAEVKKPGSSVKVSCKASGGTFSSYAISWVRQAPGQGLEWMGGSIPKFRTANYAKKFQGRVTITADESTSTAYMELSSLRSDDTAVYYCARGSAYNLRNAFDIWGQGTTVTVSSGGGGSGGGGSGGGGSAQSVVTQPPSVSAAPGQRVTISCSGSSSNIANNYVSWYQQLPGTAPKLLIYDNNKRPSGIPDRFSGSKSGTSATLGITGLQTGDEADYYCGTWDSSLSAYVFGTGTKVTVLG
B4: NO23F05 (scFv)
scFv: QVQLVQSGAEVKKPGFSVKVSCKASGGSFSNYVISWLRQAPGQGLEWMGGIMPIFGNANYAQKFQDRVTITADKSTSTAYMELSSLRSDDTAVYYCARDQIVVDPVTKGAYYSGLDVWGRGTMVTVSSGGGGSGGGGSGGGGSAQSVLTQPPSASGTPGQRVTISCSGGSSNIGANAITWFQQLPGTAPKLLIYHNNQRPSGVPDRFSGSKSGTSGSLAISGLQSEDEADYYCAVWDNSLNAMLFGGGTKLTVLG
B5: N024C01 (scFv)
scFv: QVQLQQSGAEVKNPGSSVKVSCKPSRDTLSGDNFSSSVFSWVRQAPGQGLEWMGGIIPIFGVANYAQKFQPRVTISADMSTNTAYMELSSLRSEDTAVYYCASTWELRNAFDIWGKGTLVTVSSGGGGSGGGGSGGGGSQSVLTQPPSVSAAPGQKVTISCSGSTSNIGNNYVSWYQQHPGKAPKLMIYDVSKRPSGVPDRFSGSKSGNSASLDISGLQSEDEADYYCAAWDDSLSEFLFGTGTKLTVLG
B6: NO23E01 (scFv)
scFv: QVQLVQSGGGLVQPGRSLRLSCAASGFTFDDYAMHWVRQAPGKGLEWVSGISWNSASIGYADSVKGRFTISRDNAKNSLYLQMNSLRGEDTALYYCAKGARDALDIWGKGTLLTVSSGGGGSGGGGSGGGGSQSVLTQPPSVSAAPGQKVTISCSGSTSNIGNNYVSWYQQHPGKAPKLMIYDVSKRPSGVPDRFSGSKSGNSASLDISGLQSEDEADYYCAAWDDSLSEFLFGTGTKLTVLG
B7: NO24B01 (scFv)
scFv: QVQLQQSGNEVKKPGSSVKISCKASGAPFNSYVISWVRQAPGQGLEWVGGVVPIFGTAHYAHQFQGRVTIIADKSTSTVYMELRGLTSDDTAEYFCARQGPYGKLDDWGQGTMVTVSSGGGGSGGGGSGGGGSALSYELTQPPSASGTPGQRVTISCSGSSSNIGSNYVYWYQQFPGTAPKLLMYRNNQRPSGVPDRFSGSKFGTSASLAISGLRSEDEADYYCAAWDDSLTGRVFGGGTKVTVLG
B8: NO15D08 (scFv)
scFv: QVQLLQSAPEVKKPGSSVRVSCKTSGGTFSSQLINWVRQPPGQGPEWMGGIIPIFGTANYAQKFQGRVTITADESTSTAYMELSSLRSEDTAVYYCARDLTAGRFDAFHIWGRGTLVTVSSGGGGSGGGGSGGGGSQSVLTQPPSVSAAPGQKVTISCSGSTSNIGNNYVSWYQQHPGKAPKLMIYDVSKRPSGVPDRFSGSKSGNSASLDISGLQSEDEADYYCAAWDDSLSEFLFGTGTKLTVLG
B9: NO24E07 (scFv)
scFv: QVQLQESGGGLEQPGRSLRLSCTASGFTFDDYPMHWVRQAPGKGLEWVSGISGNSDRIAYADSVKGRFTISRDNSKNTLWLQMNSLRAEDTAIYYCARAARNWFDPWGQGTLVTVSSGGGGSGGGGSGGGGSQSVLTQPPSVSAAPGQKVTISCSGSTSNIGNNYVSWYQQHPGKAPKLMIYDVSKRPSGVPDRFSGSKSGNSASLDISGLQSEDEADYYCAAWDDSLSEFLFGTGTKLTVLG
B10: NO24D08 (scFv)
scFv: EVQLVQSGAEVKRPGASVKISCRTSGYTFTSYYIHWVRQAPGQGLEWLAIINPTAGNTYYTQDFQDRVTVTRDTSTSTVYMELRGLNSEDTAVYYCASPYGVRNAFDVWGQGTMVTVSSGGGGSGGGGSGGGGSQSVLTQPPSVSAAPGQKVTISCSGSTSNIGNNYVSWYQQHPGKAPKLMIYDVSKRPSGVPDRFSGSKSGNSASLDISGLQSEDEADYYCAAWDDSLSEFLFGTGTKLTVLG
B11: N015E08 (scFv)
scFv: QMQLQESGAEVKKPGSSVKVSCKASGDTFRSYIISWVRQAPGQGLEWMGGIIPMFGTTNYAQQFQGKVTITADDSTSTSYMELRSLRSDDTAVYYCARGTNYMDVWGQGTTVTVSSGGGGSGGGGSGGGGSQSVLTQPPSVSAAPGQKVTISCSGSTSNIGNNYVSWYQQHPGKAPKLMIYDVSKRPSGVPDRFSGSKSGNSASLDISGLQSEDEADYYCAAWDDSLSEFLFGTGTKLTVLG
B12: NO24F07 (scFv)
scFv: QVQLQQSGAEVKKPGSSVNVSCKASGGTFDTFGISWVRQAPGKGLEWMGVIAHDGSISYYADSVKGRFTFSRDNSKNTVSLQMNSPRPEDTAVYYCAKGEYDSSGYNAFDIWGKGTLVTVSSGGGGSGGGGSGGGGSQSVLTQPPSVSAAPGQKVTVSCSGSTSNIGNNYVSWYQQHPGKAPKLMIYDVSKRPSGVPDRFSGSKSGNSASLDISGLQSEDEADYYCAAWDDSLSEFLFGTGTKLTVLG
B13: NO25C01 (scFv)
scFv: QVQLVQSGAEVKKPGTSVKVSCKAAGDTFRSYIISWVRQAPGQGLEWVGGIIPMFGTSNYAQKFQGRVTITADDSTSTAYMELSSLRSEDTAVYYCARTAQGGSYYNYWGQGTPVTVSSGGGGSGGGGSGGGGSQSVLTQPPSVSAAPGQKVTISCSGSTSNIGNNYVSWYQQHPGKAPKLMIYDVSKRPSGVPDRFSGSKSGNSASLDISGLQSEDEADYYCAAWDDGLSEFLFGTGTKLTVLG
B14: NO24C05 (scFv)
scFv: QVQLQQSGPGLVKPSQTLSLTCAISGDSVSSNTAAWSWIRQSPSRGLEWLGRTYYSRSKWYKDYAVSVKSRITINPDTSKNQFSLQLDSVTPEDTAVYYCTREGYYDYSGVVDYWGQGTTVIVSSGGGGSGGGGSGGGGSQSVLTQPPSASGSPGQSVTISCTGTSSDVGGYNYVSWYQQHPGKAPKFMIYDVSKRPSGVSNRFSGSKSGNTASLTISGVQAEDEADYYCSSYTSASTVIFGGGTKLTVLG
B15: NO15D10 (scFv)
scFv: QVQLVQSGAEVKKPGSSVRISCKASGGSFRTYVVSWVRQAPGQGLEWMGGIIPVYGTPNYAQKFQGRVTITADEPTRTTYMELSSLRSEDTGVYYCARNGGGLDYWGQGTMVTVSSGGGGSGGGGSGGGGSQSVLTQPPSVSAAPGQKVTISCSGSTSNIGNNYVSWYQQHPGKAPKLMIYDVSKRPSGVPDRFSGSKSGNSASLDISGLQSEDEADYYCAAWDDSLSEFLFGTGTKLTVLG
B16: NO24B07 (scFv)
scFv: QVQLQQSGAEVKKPGSSVKVSCKASGGTFSSYAISWVRQAPGQGLEWMGGSIPKFRTANYAKKFQGRVTITADESTSTAYMELSSLRSDDTAVYYCARGSTYNLRNAFDIWGKGTLVTVSSGGGGSGGGGSGGGGSAQSVVTQPPSASGTPGQRVTISCSGGSSNIGRNTVNWYQQVPGTAPKLLIYTNNQRPSGVPDRFSGSKSGTSASLAISGLQSEDEADYYCAAWDDSLNDVEFGGGTKLTVLG
B17: NO25E05 (scFv)
scFv: QVQLQQSGAEVKKPGSSVKVSCKASGDTFSSNTISWVRQAPGQGLEWMGGIIPIIGTPHYAQKFQGRVTITADRSTSTAYMELTNLRSEDTAVYFCARNRVGTSSFDFWGQGTMVTVSSGGGGSGGGGSGGGGSALPVLTQPPSASGTPGQRVTISCSGSSSNIGSNTVNWYQQLPGTAPKLFIYSNNQRPSGVPDRFSGSKSGTSASLAISGLQSEDEADYYCSSWDDSLNLIFGGGTKVTVLG

Biological target: T1, mature form of the neurokinin B …
Assay: phage display selection of scFvs; conditions not given

binding result | Binder
binds | B1
binds | B2
binds | B3
binds | B4
binds | B5
binds | B6
binds | B7
binds | B8
binds | B9
binds | B10
binds | B11
binds | B12
binds | B13
binds | B14
binds | B15
binds | B16
binds | B17
